# Laboratory results: patent US10130693B2, “Peptides, combination of peptides and scaffolds for use in immunotherapeutic treatment of various cancers” (Immatics Biotechnologies GmbH, priority 2015, dated 2018)
# Test system: CD8+ T cells
# Test: In vitro immunogenicity: T-cell priming with aAPCs loaded with HLA-A*24 peptide/MHC and anti-CD28, multimer staining
# Assay type: cell-based, human
# Settings: HLA-A*24 peptides, positive wells after priming
# Protocol: CD8+ T cells were primed using artificial APCs coated with anti-CD28 mAb and HLA-A*24 in complex with SEQ ID NO: 99 peptide (FIG. 5A, left panel), SEQ ID NO: 119 peptide (FIG. 5B, left panel), SEQ ID NO: 142 peptide (FIG. 5C, left panel) and SEQ ID NO: 174 peptide FIG. 5 (D, left panel), respectively. After three cycles of stimulation, the detection of peptide-reactive cells was performed by 2D multimer staining with A*24/SEQ ID NO: 99 (FIG. 5A), A*24/SEQ ID NO: 119 (FIG. 5B), A*24/SEQ ID NO: 142 (FIG. 5C) or A*24/SEQ ID NO: 174 (FIG. 5D). Right panels (FIGS. 5A,5B,5C and 5D) show control staining of cells stimulated with irrelevant A*24/peptide complexes. Viable singlet cells were gated for CD8+ lymphocytes. Boolean gates helped excluding false-positive events detected with multimers specific for different peptides. Frequencies of specific multimer+ cells among CD8+ lymphocytes are indicated.
# Generation of pMHC/anti-CD28 coated beads, T-cell stimulations and readout was performed in a highly defined in vitro system using four different pMHC molecules per stimulation condition and 8 different pMHC molecules per readout condition.
# The purified co-stimulatory mouse IgG2a anti human CD28 Ab 9.3 (Jung et al., 1987) was chemically biotinylated using Sulfo-N-hydroxysuccinimidobiotin as recommended by the manufacturer (Perbio, Bonn, Germany). Beads used were 5.6 μm diameter streptavidin coated polystyrene particles (Bangs Laboratories, Illinois, USA).
# 800.000 beads/200 μl were coated in 96-well plates in the presence of 4×12.5 ng different biotin-pMHC, washed and 600 ng biotin anti-CD28 were added subsequently in a volume of 200 μl. Stimulations were initiated in 96-well plates by co-incubating 1×10^6 CD8+ T cells with 2×10^5 washed coated beads in 200 μl TCM supplemented with 5 ng/ml IL-12 (PromoCell) for 3 days at 37° C. Half of the medium was then exchanged by fresh TCM supplemented with 80 U/ml IL-2 and incubating was continued for 4 days at 37° C. This stimulation cycle was performed for a total of three times. For the pMHC multimer readout using 8 different pMHC molecules per condition, a two-dimensional combinatorial coding approach was used as previously described (Andersen et al., 2012) with minor modifications encompassing coupling to 5 different fluorochromes. Finally, multimeric analyses were performed by staining the cells with Live/dead near IR dye (Invitrogen, Karlsruhe, Germany), CD8-FITC antibody clone SK1 (BD, Heidelberg, Germany) and fluorescent pMHC multimers. For analysis, a BD LSRII SORP cytometer equipped with appropriate lasers and filters was used. Peptide specific cells were calculated as percentage of total CD8+ cells. Evaluation of multimeric analysis was done using the FlowJo software (Tree Star, Oregon, USA). In vitro priming of specific multimer+CD8+ lymphocytes was detected by comparing to negative control stimulations.
row,Substance,"in vitro immunogenicity, wells"
1,393 (KYIEAIQWI; listed as Homo sapiens) [compound 393],++ (20%-49% = ++)
2,399 (SYIDVLPEF; listed as Homo sapiens) [compound 399],++ (20%-49% = ++)
3,400 (KYLEKYYNL; listed as Homo sapiens) [compound 400],++ (20%-49% = ++)
4,407 (VYGIRLEHF; listed as Homo sapiens) [compound 407],+++ (50%-69% = +++)
5,414 (MYPYIYHVL; listed as Homo sapiens) [compound 414],++ (20%-49% = ++)

# Molecular target: HLA-A*02:01 (Homo sapiens, UniProt P04439, D140Y/D185E/D98H/E176V/E277Q/G131W/G231S/I119V/I121R/I166T/I218V/L300P/L318F/N151K/N90K/P208A/P217A/Q86G/Q94H/R138H/R169H/T345S)
# Test: MHC binding assay, UV-ligand exchange with beta2m ELISA (exchange yield), HLA-A*02
# Settings: binding to HLA-A*02 ranged by peptide exchange yield
# Description: Candidate peptides for T cell based therapies according to the present invention were further tested for their MHC binding capacity (affinity). The individual peptide-MHC complexes were produced by UV-ligand exchange, where a UV-sensitive peptide is cleaved upon UV-irradiation, and exchanged with the peptide of interest as analyzed. Only peptide candidates that can effectively bind and stabilize the peptide-receptive MHC molecules prevent dissociation of the MHC complexes. To determine the yield of the exchange reaction, an ELISA was performed based on the detection of the light chain (β2m) of stabilized MHC complexes. The assay was performed as generally described in Rodenko et al. (Rodenko et al., 2006).
# 96 well MAXISorp plates (NUNC) were coated over night with 2 ug/ml streptavidin in PBS at room temperature, washed 4× and blocked for 1 h at 37° C. in 2% BSA containing blocking buffer. […] Peptide-MHC monomers of the UV-exchange reaction were diluted 100 fold in blocking buffer. Samples were incubated for 1 h at 37° C., washed four times, incubated with 2 ug/ml HRP conjugated anti-β2m for 1h at 37° C., washed again and detected with TMB solution that is stopped with […]. Absorption was measured at 450 nm. Candidate peptides that show a high exchange yield (preferably higher than 50%, most preferred higher than 75%) are generally preferred for a generation and production of antibodies or fragments thereof, and/or T cell receptors or fragments thereof, as they show sufficient avidity to the MHC molecules and prevent dissociation of the MHC complexes.
row,Substance,Peptide exchange (MHC class I binding score)
1,65 (KLDGICWQV; listed as Homo sapiens) [compound 65],+++ (50%-75% = +++)
2,66 (FITDFYTTV; listed as Homo sapiens) [compound 66],+++ (50%-75% = +++)
3,67 (GVIETVTSL; listed as Homo sapiens) [compound 67],++ (20%-49% = ++)
4,69 (GIYDGILHSI; listed as Homo sapiens) [compound 69],+++ (50%-75% = +++)
5,70 (GLFSQHFNL; listed as Homo sapiens) [compound 70],+++ (50%-75% = +++)
6,71 (GLITVDIAL; listed as Homo sapiens) [compound 71],+++ (50%-75% = +++)
7,72 (GMIGFQVLL; listed as Homo sapiens) [compound 72],+++ (50%-75% = +++)
8,74 (ILDETLENV; listed as Homo sapiens) [compound 74],++ (20%-49% = ++)
9,75 (ILDNVKNLL; listed as Homo sapiens) [compound 75],+++ (50%-75% = +++)
10,76 (ILLDESNFNHFL; listed as Homo sapiens) [compound 76],+++ (50%-75% = +++)
11,77 (IVLSTIASV; listed as Homo sapiens) [compound 77],+++ (50%-75% = +++)
12,78 (LLWGHPRVA; listed as Homo sapiens) [compound 78],+++ (50%-75% = +++)
13,79 (SLVPLQILL; listed as Homo sapiens) [compound 79],++++ (>=75% = ++++)
14,80 (TLDEYLTYL; listed as Homo sapiens) [compound 80],+++ (50%-75% = +++)
15,81 (VLFLGKLLV; listed as Homo sapiens) [compound 81],++ (20%-49% = ++)
16,82 (VLLRVLIL; listed as Homo sapiens) [compound 82],++ (20%-49% = ++)
17,83 (ELLEYLPQL; listed as Homo sapiens) [compound 83],+++ (50%-75% = +++)
18,84 (FLEEEITRV; listed as Homo sapiens) [compound 84],+++ (50%-75% = +++)
19,85 (STLDGSLHAV; listed as Homo sapiens) [compound 85],+++ (50%-75% = +++)
20,87 (YLTEVFLHVV; listed as Homo sapiens) [compound 87],+++ (50%-75% = +++)
21,88 (ILLNTEDLASL; listed as Homo sapiens) [compound 88],+++ (50%-75% = +++)
22,89 (YLVAHNLLL; listed as Homo sapiens) [compound 89],+++ (50%-75% = +++)

row,Substance,Peptide exchange (MHC class I binding score)
1,90 (GAVAEEVLSSI; listed as Homo sapiens) [compound 90],+ (<20% = +)
2,91 (SSLEPQIQPV; listed as Homo sapiens) [compound 91],+ (<20% = +)
3,92 (LLRGPPVARA; listed as Homo sapiens) [compound 92],++ (20%-49% = ++)
4,93 (SLLTQPIFL; listed as Homo sapiens) [compound 93],+++ (50%-75% = +++)
5,321 (SLWFKPEEL; listed as Homo sapiens) [compound 321],+++ (50%-75% = +++)
6,323 (ILSVVNSQL; listed as Homo sapiens) [compound 323],+++ (50%-75% = +++)
7,324 (AIFDFCPSV; listed as Homo sapiens) [compound 324],++++ (>=75% = ++++)
8,325 (RLLPKVQEV; listed as Homo sapiens) [compound 325],++ (20%-49% = ++)
9,326 (SLLPLVWKI; listed as Homo sapiens) [compound 326],+++ (50%-75% = +++)
10,327 (SIGDIFLKY; listed as Homo sapiens) [compound 327],+++ (50%-75% = +++)
11,328 (SVDSAPAAV; listed as Homo sapiens) [compound 328],++ (20%-49% = ++)
12,329 (FAWEPSFRDQV; listed as Homo sapiens) [compound 329],++ (20%-49% = ++)
13,330 (FLWPKEVEL; listed as Homo sapiens) [compound 330],+++ (50%-75% = +++)
14,333 (GTFLEGVAK; listed as Homo sapiens) [compound 333],+++ (50%-75% = +++)
15,334 (GRADALRVL; listed as Homo sapiens) [compound 334],+++ (50%-75% = +++)
16,335 (VLLAAGPSAA; listed as Homo sapiens) [compound 335],++ (20%-49% = ++)
17,336 (GLMDGSPHFL; listed as Homo sapiens) [compound 336],++ (20%-49% = ++)
18,337 (KVLGKIEKV; listed as Homo sapiens) [compound 337],+++ (50%-75% = +++)
19,338 (LLYDGKLSSA; listed as Homo sapiens) [compound 338],++ (20%-49% = ++)
20,339 (VLGPGPPPL; listed as Homo sapiens) [compound 339],++ (20%-49% = ++)
21,340 (SVAKTILKR; listed as Homo sapiens) [compound 340],++ (20%-49% = ++)
